# According to the Human Domainome abundance scans (Beltran et al. 2025):
# ± gives the uncertainty stated by the source.
# B1: Zinc finger MYM-type protein 6, residues 427 to 504; numbered along this chain, O95789 (parent)
# chain: KLKCQHCNHLFATKPELLFYKGKMFLFCGKNCSDEYKKKNKVVAMCDYCKLQKIIKETVRFSGVDKPFCSEVCKFLSA
# Variants of: B1
# Assay: abundance fitness (aPCA) (normalised: wild type 0, dead -1); higher = more abundant; growth selection in yeast, the domain comes from the species named
# Settings: Homo sapiens
row,Variant,abundance fitness
1,C46D,-0.531 ± 0.15
2,C46E,-0.674 ± 0.13
3,C46A,-0.479 ± 0.12
4,C46V,-0.308 ± 0.11
5,C46G,-0.629 ± 0.094
6,C46R,-0.331 ± 0.099
7,C46W,0.056 ± 0.11
8,C46P,-0.248 ± 0.2
9,C46I,0.329 ± 0.44
10,C46M,-0.159 ± 0.12
11,C46S,-0.703 ± 0.17
12,C46K,0.241 ± 0.13
13,C46T,-0.311 ± 0.18
14,K50G,-0.228 ± 0.076
15,K50D,-0.767 ± 0.37
16,K50E,-0.363 ± 0.14
17,K50H,-0.427 ± 0.43
18,K50L,-0.722 ± 0.19
19,K50N,-0.23 ± 0.17
20,K50C,-0.805 ± 0.19
21,K50A,-0.786 ± 0.16

row,Variant,abundance fitness
1,K50M,-0.685 ± 0.27
2,A44T,-0.629 ± 0.28
3,A44E,-0.112 ± 0.16
4,A44Q,0.054 ± 0.21
5,A44P,-0.604 ± 0.28
6,A44Y,-1.28 ± 0.26
7,A44G,-0.132 ± 0.076
8,A44V,-0.319 ± 0.19
9,A44S,-0.282 ± 0.12
10,A44M,0.39 ± 0.28
11,A44W,-0.558 ± 0.28
12,A44R,-0.495 ± 0.1
13,A44K,0.117 ± 0.14
14,Y36C,-0.187 ± 0.061
15,Y36H,-0.005 ± 0.076
16,Y36D,-0.453 ± 0.088
17,Y36K,-0.661 ± 0.12
18,Y36R,-0.26 ± 0.028
19,Y36W,-0.042 ± 0.033
20,Y36V,-0.15 ± 0.038
21,Y36Q,-0.13 ± 0.056

row,Variant,abundance fitness
1,Y36M,-0.093 ± 0.056
2,Y36G,-0.183 ± 0.029
3,Y36T,-0.169 ± 0.06
4,Y36N,-0.172 ± 0.17
5,Y36L,-0.181 ± 0.032
6,K37L,-0.134 ± 0.035
7,K37V,-0.029 ± 0.03
8,K37M,-0.214 ± 0.15
9,K37T,-0.099 ± 0.04
10,K37C,-0.074 ± 0.084
11,K37A,0.004 ± 0.028
12,K37Q,0.051 ± 0.084
13,K37W,-0.099 ± 0.033
14,K37S,-0.068 ± 0.051
15,K37N,0.097 ± 0.24
16,K37D,-0.057 ± 0.065
17,K37P,-0.114 ± 0.036
18,K37G,-0.027 ± 0.027
19,K37R,-0.046 ± 0.028
20,M45P,-0.328 ± 0.16
21,M45A,0.039 ± 0.089

row,Variant,abundance fitness
1,M45H,-0.345 ± 0.36
2,M45S,-0.073 ± 0.094
3,M45Y,0.35 ± 0.14
4,M45K,-0.237 ± 0.18
5,M45V,-0.145 ± 0.096
6,M45L,-0.671 ± 0.18
7,M45E,-0.051 ± 0.13
8,M45C,-0.407 ± 0.26
9,M45W,-0.842 ± 0.25
10,M45R,-0.062 ± 0.073
11,M45G,-0.502 ± 0.085
12,Y48P,-0.801 ± 0.23
13,Y48L,-0.496 ± 0.11
14,Y48G,-0.174 ± 0.077
15,Y48N,-0.184 ± 0.21
16,Y48C,0.426 ± 0.21
17,Y48M,-0.65 ± 0.17
18,Y48A,-0.557 ± 0.11
19,Y48E,-0.861 ± 0.28
20,Y48H,0.537 ± 0.18
